The record followed here is article PMC11250262, “Understanding the genetic complexity of puberty timing across the allele frequency spectrum” (Nature Genetics, 2024).

The test concerns the target MC3R-RlucII (human, UniProt P41968 1-323). The test can be described thus: cell-based or functional assay.

Chain of MC3R-RlucII (P41968 whole entry): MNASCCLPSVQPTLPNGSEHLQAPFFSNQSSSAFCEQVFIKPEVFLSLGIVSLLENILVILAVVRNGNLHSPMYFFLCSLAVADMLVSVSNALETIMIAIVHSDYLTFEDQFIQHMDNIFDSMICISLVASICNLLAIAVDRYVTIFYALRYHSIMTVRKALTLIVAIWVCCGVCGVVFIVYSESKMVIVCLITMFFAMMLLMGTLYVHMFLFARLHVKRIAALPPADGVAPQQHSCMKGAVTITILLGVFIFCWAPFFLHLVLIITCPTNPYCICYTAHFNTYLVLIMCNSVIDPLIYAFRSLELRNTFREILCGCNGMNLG

B1: GPR83-Venus (receptor, human, UniProt Q9NYM4-1 17-423, looked up)
chain: TEPHEGRADEQSAEAALAVPNASHFFSWNNYTFSDWQNFVGRRRYGAESQNPTVKALLIVAYSFIIVFSLFGNVLVCHVIFKNQRMHSATSLFIVNLAVADIMITLLNTPFTLVRFVNSTWIFGKGMCHVSRFAQYCSLHVSALTLTAIAVDRHQVIMHPLKPRISITKGVIYIAVIWTMATFFSLPHAICQKLFTFKYSEDIVRSLCLPDFPEPADLFWKYLDLATFILLYILPLLIISVAYARVAKKLWLCNMIGDVTTEQYFALRRKKKKTIKMLMLVVVLFALCWFPLNCYVLLLSSKVIRTNNALYFAFHWFAMSSTCYNPFIYCWLNENFRIELKALLSMCQRPPKPQEDRPPSPVPSFRVAWTEKNDGQRAPLANNLLPTSQLQSGKTDLSSVEPIVTMS
B1: the “NDP-αMSH-stimulated cAMP production (GloSensor, area under the curve) in HEK293 cells cotransfected with GPR83 and MC3R (1:1 ratio), against MC3R alone” value is 43%.
